Primed or numbered codes have the meaning given here. Where no end group is shown, it is not given here. Side-chain parts run from the residue outwards. [ ]: non-standard residue; d: D form. The star is where a group is joined. DOTA″ = DOTA chelator, carrying Sc, O=C([O-])CN1CCN(CC(=O)[O-])CCN(CC(=O)*)CCN(CC(=O)[O-])CC1.[Sc+3]; DOTA′ = DOTA-Sc chelate, O=C([O-])CN1CCN(CC(=O)[O-])CCN(CC(=O)*)CCN(CC(=O)[O-])CC1.[Sc+3]; hArg = N=C(N)NCCCC[C@H](N)C(=O)O; Dab = NCC[C@H](N)C(=O)O; Ahx = NCCCCCC(=O)O
T1: Recombinant human NRP-1 (neuropilin-1 co-receptor) (human, UniProt O14786 22-856)
T1 construct: neuropilin-1, human, recombinant; It is probably a soluble extracellular construct (surmise); source: bought: BioLegend
T1 sequence (looked up): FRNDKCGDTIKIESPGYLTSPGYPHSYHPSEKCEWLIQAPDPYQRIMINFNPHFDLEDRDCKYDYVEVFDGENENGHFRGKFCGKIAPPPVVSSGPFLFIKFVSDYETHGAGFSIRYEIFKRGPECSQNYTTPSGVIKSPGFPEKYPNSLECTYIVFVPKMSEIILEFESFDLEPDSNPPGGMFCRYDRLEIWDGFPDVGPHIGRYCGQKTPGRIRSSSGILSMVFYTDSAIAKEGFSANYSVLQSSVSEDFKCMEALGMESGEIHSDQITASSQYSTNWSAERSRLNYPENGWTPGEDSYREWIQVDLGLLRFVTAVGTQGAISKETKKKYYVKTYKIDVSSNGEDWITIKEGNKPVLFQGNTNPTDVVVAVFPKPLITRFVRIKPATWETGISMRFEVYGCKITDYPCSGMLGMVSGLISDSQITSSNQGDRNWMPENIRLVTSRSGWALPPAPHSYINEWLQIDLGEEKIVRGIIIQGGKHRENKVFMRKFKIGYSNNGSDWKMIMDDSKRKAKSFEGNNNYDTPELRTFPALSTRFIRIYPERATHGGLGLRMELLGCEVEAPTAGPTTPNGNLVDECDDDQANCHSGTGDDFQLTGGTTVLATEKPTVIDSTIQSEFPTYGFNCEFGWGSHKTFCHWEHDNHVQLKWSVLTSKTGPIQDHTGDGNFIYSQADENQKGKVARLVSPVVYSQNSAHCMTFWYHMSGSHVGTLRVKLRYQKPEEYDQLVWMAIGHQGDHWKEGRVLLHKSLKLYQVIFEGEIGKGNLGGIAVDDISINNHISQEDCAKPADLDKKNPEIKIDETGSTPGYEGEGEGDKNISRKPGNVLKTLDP

B1: Ala-Thr-Trp-Leu-Pro-Pro-Arg (A7R) heptapeptide (peptide)
peptide: ATWLPPR
notes: found by a mutated phage library screening; free C-terminal carboxyl group; also called ^LA7R; source: synthetic peptide (SPPS, Fmoc chemistry)
B2: Lys(DOTA-Sc)-A7R (peptide)
peptide: H-K(DOTA′)ATWLPPR
modifications: also: DOTA chelating Sc
notes: Lys(DOTA)-Ala-Thr-Trp-Leu-Pro-Pro-Arg; the Lys is a linker before A7R; also called Sc-1bis; source: bought: CASLO ApS (conjugate 1bis), complexed with ScCl3
B3: Sc-DOTA-Ahx-A7R (peptide)
peptide: {DOTA″-Ahx}-ATWLPPR
modifications: also: Sc chelated by DOTA
notes: A7R peptide with linker and chelator on the N-terminus; also called Sc-1; source: synthetic peptide conjugate (SPPS), complexed with ScCl3

These binders were tested against T1, Recombinant human NRP-1 (neuropilin-1 …) (assay: ELISA; competitive; recombinant human NRP-1 coated on a 96-well plate (200 ng/well, overnight, 4 °C), blocked with 0.5% BSA in PBS; 50 µL compound in PBS (100, 50, 25, 12.5, 6.75 µM) plus 50 µL (400 ng/mL) human (bt)-VEGF-A165 in PBS with 4 µg/mL heparin; 2 h at room temperature; streptavidin-HRP, chemiluminescence; IC50 by nonlinear regression, mean ± SD of three experiments). Conditions: both partners purified.
Binder K(hArg)[Dab]([Ahx-DOTA″])PR (also: Sc chelated by DOTA) [Lys(hArg)-Dab(Ahx-DOTA-Sc)-Pro-Arg] has an IC50 of 17.9 µM. B1 was tested, and the IC50 was 17.5 µM. For B2, the IC50 was 18.1 µM. With [dR][dP][dP][dL][dW][dT][dA] (also called ^DR7A) [retro-inverso isomer of A7R (DArg-DPro-DPro-DLeu-DTrp-DThr-DAla)] the IC50 was over 100 µM. Binder K(hArg)[Dab]PR [branched peptidomimetic Lys(hArg)-Dab-Pro-Arg (K4R)] has an IC50 of 4.83 µM. Work on B3 yielded an IC50 of 22.5 µM.

— article PMC9953004, “Scandium-44 Radiolabeled Peptide and Peptidomimetic Conjugates Targeting Neuropilin-1 Co-Receptor as Potential Tools for Cancer Diagnosis and Anti-Angiogenic Therapy” (Biomedicines, 2023)
